In article PMC4191419, “SSX2 is a novel DNA-binding protein that antagonizes polycomb group body formation and gene repression” one finds Kd data, which are given here for one molecule.

This series deals with SSX2 (rSSX2) (UniProt Q16385 1-188). Put plainly: MST; Hill coefficient 3.0; 50 nM DNA; EMSA: 20 mM Tris-HCl pH 7.4, 50 mM NaCl, 1 mM DTT (complexes stable at 75 mM, dissolved at 250 mM NaCl; fragment used not stated); MST: 20 mM Tris-HCl pH 7.4, NaCl printed as 50 nM (probably 50 mM), 0.05% NP40, ambient temperature, 2 h. As to conditions: protein: recombinant.
Chain of SSX2 (rSSX2) (Q16385 whole entry, the tested form may be a part): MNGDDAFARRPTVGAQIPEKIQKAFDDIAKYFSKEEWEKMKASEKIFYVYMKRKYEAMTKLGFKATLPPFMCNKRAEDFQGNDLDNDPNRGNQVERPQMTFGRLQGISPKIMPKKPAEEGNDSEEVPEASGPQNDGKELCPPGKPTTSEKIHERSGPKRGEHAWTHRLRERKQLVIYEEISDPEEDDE

B1: Cy5 random 30-nt dsDNA (dsDNA)
DNA 1: CGTCTATACTTTCACAATGTTGACCTGCAC
DNA 2: GTGCAGGTCAACATTGTGAAAGTATAGACG
B1: the Kd stood at 1800 ± 200 nM.

One may read the Kd as a measure of binding affinity in units of concentration.
